Laboratory results published in patent US20210246166A1 (Bayer, published 2021).
Numbered stars: 1 amine (or outer) side, 2 acyl side, 3 side chain; on linkers, the order of the positions; unused ones are H or OH. Bridge positions count the residues as written; N and C are the ends. Square brackets hold non-standard residues; d marks the D form. Ends that are not written are not given here. X13 = (2S)‑2‑amino‑3‑(1-methylcyclopropyl)propanoic acid, CC1(C[C@H](N[*:1])C(=O)[*:2])CC1; Oic = O=C(O)[C@@H]1C[C@@H]2CCCC[C@@H]2N1; tBuAla = CC(C)(C)C[C@H](N)C(=O)O; Pen = CC(C)(S)[C@H](N)C(=O)O; NMeC = CN[C@@H](CS)C(=O)O; Orn = NCCC[C@H](N)C(=O)O; Dap = NC[C@H](N)C(=O)O; Sar = CNCC(=O)O

Tests used:
[1] = molecular target: T1, Recombinant human MASP1 enzyme (fragment corresponding to amino acids 297-699, C-terminal His Tag) (human, UniProt P48740 297-699); assay: cell-based or functional assay
T1 sequence: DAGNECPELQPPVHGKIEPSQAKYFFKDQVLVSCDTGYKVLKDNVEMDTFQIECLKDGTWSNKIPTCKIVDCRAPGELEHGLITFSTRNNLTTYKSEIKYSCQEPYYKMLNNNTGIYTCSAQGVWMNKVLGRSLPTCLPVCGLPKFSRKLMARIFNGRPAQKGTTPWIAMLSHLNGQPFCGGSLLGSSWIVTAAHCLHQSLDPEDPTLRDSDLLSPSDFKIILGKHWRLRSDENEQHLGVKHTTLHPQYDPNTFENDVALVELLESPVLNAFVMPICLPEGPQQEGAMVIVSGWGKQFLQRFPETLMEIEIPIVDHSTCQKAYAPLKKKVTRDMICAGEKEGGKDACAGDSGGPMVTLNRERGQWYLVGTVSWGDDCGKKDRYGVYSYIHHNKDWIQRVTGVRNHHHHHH

[2] = molecular target: Recombinant human MASP2 enzyme (fragment corresponding to amino acids 297-686, C-terminal His Tag) (human, UniProt O00187 297-686); assay: cell-based or functional assay
Sequence of Recombinant human MASP2 enzyme (fragment corresponding to amino acids 297-686, C-terminal His Tag) (O00187 other isoform, or with tags, fused parts or gaps limits assumed): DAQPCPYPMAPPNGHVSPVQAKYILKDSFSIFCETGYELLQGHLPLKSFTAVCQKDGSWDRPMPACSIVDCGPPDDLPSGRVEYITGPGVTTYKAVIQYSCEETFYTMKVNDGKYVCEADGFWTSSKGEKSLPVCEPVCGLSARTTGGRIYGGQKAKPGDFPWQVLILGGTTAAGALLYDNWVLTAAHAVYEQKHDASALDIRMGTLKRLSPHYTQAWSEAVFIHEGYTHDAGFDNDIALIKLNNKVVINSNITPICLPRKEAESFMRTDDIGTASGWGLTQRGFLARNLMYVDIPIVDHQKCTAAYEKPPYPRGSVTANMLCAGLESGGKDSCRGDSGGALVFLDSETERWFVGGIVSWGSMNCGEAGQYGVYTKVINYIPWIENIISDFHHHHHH

B1: (Orn)-IC+SRS-((tBu)A)-PPIC+I-NH2 (peptide)
peptide: [Orn]ICSRS[tBuAla]PPICI-NH2
modifications: disulfide 3-11; N-terminus assumed
SMILES: CC[C@H](C)[C@H](NC(=O)[C@@H]1CSSC[C@H](NC(=O)[C@@H](NC(=O)[C@@H](N)CCCN)[C@@H](C)CC)C(=O)N[C@@H](CO)C(=O)N[C@@H](CCCNC(=N)N)C(=O)N[C@@H](CO)C(=O)N[C@@H](CC(C)(C)C)C(=O)N2CCC[C@H]2C(=O)N2CCC[C@H]2C(=O)N[C@@H]([C@@H](C)CC)C(=O)N1)C(N)=O
human MASP1 IC50 [1]: 4.8 nM | human MASP2 IC50 [2]: 170 nM

B2: aIC+SRSLP-(Oic)-I-(Pen)+IP-OH (peptide)
peptide: [dA]ICSRSLP[Oic]I[Pen]IP-OH
modifications: disulfide 3-11; N-terminus assumed
SMILES: CC[C@H](C)[C@H](NC(=O)[C@@H](C)N)C(=O)N[C@H]1CSSC(C)(C)[C@@H](C(=O)N[C@H](C(=O)N2CCC[C@H]2C(=O)O)[C@@H](C)CC)NC(=O)[C@H]([C@@H](C)CC)NC(=O)[C@@H]2C[C@@H]3CCCC[C@@H]3N2C(=O)[C@@H]2CCCN2C(=O)[C@H](CC(C)C)NC(=O)[C@H](CO)NC(=O)[C@H](CCCNC(=N)N)NC(=O)[C@H](CO)NC1=O
human MASP1 IC50 [1]: 4.9 nM | human MASP2 IC50 [2]: 200 nM

B3: ((N-Me)G)-IC+SRSLP-(Oic)-I-(Pen)+IPE-OH (peptide)
peptide: [Sar]ICSRSLP[Oic]I[Pen]IPE-OH
modifications: disulfide 3-11; N-terminus assumed
SMILES: CC[C@H](C)[C@H](NC(=O)CNC)C(=O)N[C@H]1CSSC(C)(C)[C@@H](C(=O)N[C@H](C(=O)N2CCC[C@H]2C(=O)N[C@@H](CCC(=O)O)C(=O)O)[C@@H](C)CC)NC(=O)[C@H]([C@@H](C)CC)NC(=O)[C@@H]2C[C@@H]3CCCC[C@@H]3N2C(=O)[C@@H]2CCCN2C(=O)[C@H](CC(C)C)NC(=O)[C@H](CO)NC(=O)[C@H](CCCNC(=N)N)NC(=O)[C@H](CO)NC1=O
human MASP1 IC50 [1]: 5.1 nM | human MASP2 IC50 [2]: 180 nM

B4: YIC+SRS-((tBu)A)-PPI-((N-Me)C)+I-NH2 (peptide)
peptide: YICSRS[tBuAla]PPI[NMeC]I-NH2
modifications: disulfide 3-11; N-terminus assumed
SMILES: CC[C@H](C)[C@H](NC(=O)[C@@H]1CSSC[C@H](NC(=O)[C@@H](NC(=O)[C@@H](N)Cc2ccc(O)cc2)[C@@H](C)CC)C(=O)N[C@@H](CO)C(=O)N[C@@H](CCCNC(=N)N)C(=O)N[C@@H](CO)C(=O)N[C@@H](CC(C)(C)C)C(=O)N2CCC[C@H]2C(=O)N2CCC[C@H]2C(=O)N[C@@H]([C@@H](C)CC)C(=O)N1C)C(N)=O
human MASP1 IC50 [1]: 4.5 nM | human MASP2 IC50 [2]: 68 nM

B5: FIC+SRS-((tBu)A)-PPI-((N-Me)C)+I-NH2 (peptide)
peptide: FICSRS[tBuAla]PPI[NMeC]I-NH2
modifications: disulfide 3-11; N-terminus assumed
SMILES: CC[C@H](C)[C@H](NC(=O)[C@@H]1CSSC[C@H](NC(=O)[C@@H](NC(=O)[C@@H](N)Cc2ccccc2)[C@@H](C)CC)C(=O)N[C@@H](CO)C(=O)N[C@@H](CCCNC(=N)N)C(=O)N[C@@H](CO)C(=O)N[C@@H](CC(C)(C)C)C(=O)N2CCC[C@H]2C(=O)N2CCC[C@H]2C(=O)N[C@@H]([C@@H](C)CC)C(=O)N1C)C(N)=O
human MASP1 IC50 [1]: 4.5 nM | human MASP2 IC50 [2]: 170 nM

[(2S)‑2((Amino)-2-(tetrahydro-2H-pyran-4-yl))acetic acid]ICSRSLP[Oic]ICI-OH (disulfide 3-11) [((2S)-2[(Amino)-2-(tetrahydro-2H-pyran-4-yl)]acetic acid)-IC+SRSLP-(Oic)-IC+I-OH]
human MASP1 IC50 [1]: 4.7 nM | human MASP2 IC50 [2]: 200 nM

B6: ((N-Me)G)-IC+SRSLP-(Oic)-I-(Pen)+IPE-NH2 (peptide)
peptide: [Sar]ICSRSLP[Oic]I[Pen]IPE-NH2
modifications: disulfide 3-11; N-terminus assumed
SMILES: CC[C@H](C)[C@H](NC(=O)CNC)C(=O)N[C@H]1CSSC(C)(C)[C@@H](C(=O)N[C@H](C(=O)N2CCC[C@H]2C(=O)N[C@@H](CCC(=O)O)C(N)=O)[C@@H](C)CC)NC(=O)[C@H]([C@@H](C)CC)NC(=O)[C@@H]2C[C@@H]3CCCC[C@@H]3N2C(=O)[C@@H]2CCCN2C(=O)[C@H](CC(C)C)NC(=O)[C@H](CO)NC(=O)[C@H](CCCNC(=N)N)NC(=O)[C@H](CO)NC1=O
human MASP1 IC50 [1]: 5 nM | human MASP2 IC50 [2]: 200 nM

B7: ((N-Me)G)-IC+SRSLP-(Oic)-I-(Pen)+I-OH (peptide)
peptide: [Sar]ICSRSLP[Oic]I[Pen]I-OH
modifications: disulfide 3-11; N-terminus assumed
SMILES: CC[C@H](C)[C@H](NC(=O)[C@H]1NC(=O)[C@H]([C@@H](C)CC)NC(=O)[C@@H]2C[C@@H]3CCCC[C@@H]3N2C(=O)[C@@H]2CCCN2C(=O)[C@H](CC(C)C)NC(=O)[C@H](CO)NC(=O)[C@H](CCCNC(=N)N)NC(=O)[C@H](CO)NC(=O)[C@@H](NC(=O)[C@@H](NC(=O)CNC)[C@@H](C)CC)CSSC1(C)C)C(=O)O
human MASP1 IC50 [1]: 4.9 nM | human MASP2 IC50 [2]: 550 nM

B8: aIC+SRSLP-(Oic)-I-(Pen)+IPQ-OH (peptide)
peptide: [dA]ICSRSLP[Oic]I[Pen]IPQ-OH
modifications: disulfide 3-11; N-terminus assumed
SMILES: CC[C@H](C)[C@H](NC(=O)[C@@H](C)N)C(=O)N[C@H]1CSSC(C)(C)[C@@H](C(=O)N[C@H](C(=O)N2CCC[C@H]2C(=O)N[C@@H](CCC(N)=O)C(=O)O)[C@@H](C)CC)NC(=O)[C@H]([C@@H](C)CC)NC(=O)[C@@H]2C[C@@H]3CCCC[C@@H]3N2C(=O)[C@@H]2CCCN2C(=O)[C@H](CC(C)C)NC(=O)[C@H](CO)NC(=O)[C@H](CCCNC(=N)N)NC(=O)[C@H](CO)NC1=O
human MASP1 IC50 [1]: 4.9 nM | human MASP2 IC50 [2]: 140 nM

B9: (Dap)-IC+SRS-((tBu)A)-PPI-(Pen)+I-NH2 (peptide)
peptide: [Dap]ICSRS[tBuAla]PPI[Pen]I-NH2
modifications: disulfide 3-11; N-terminus assumed
SMILES: CC[C@H](C)[C@H](NC(=O)[C@H]1NC(=O)[C@H]([C@@H](C)CC)NC(=O)[C@@H]2CCCN2C(=O)[C@@H]2CCCN2C(=O)[C@H](CC(C)(C)C)NC(=O)[C@H](CO)NC(=O)[C@H](CCCNC(=N)N)NC(=O)[C@H](CO)NC(=O)[C@@H](NC(=O)[C@@H](NC(=O)[C@@H](N)CN)[C@@H](C)CC)CSSC1(C)C)C(N)=O
human MASP1 IC50 [1]: 5.1 nM | human MASP2 IC50 [2]: 81 nM

B10: ((N-Me)G)-IC+SRS-((2S)-2-amino-3-(1-methylcyclopropyl)propanoic acid)-PPI-(Pen)+IP-NH2 (peptide)
peptide: [Sar]ICSRS[X13]PPI[Pen]IP-NH2
modifications: disulfide 3-11; N-terminus assumed
SMILES: CC[C@H](C)[C@H](NC(=O)CNC)C(=O)N[C@H]1CSSC(C)(C)[C@@H](C(=O)N[C@H](C(=O)N2CCC[C@H]2C(N)=O)[C@@H](C)CC)NC(=O)[C@H]([C@@H](C)CC)NC(=O)[C@@H]2CCCN2C(=O)[C@@H]2CCCN2C(=O)[C@H](CC2(C)CC2)NC(=O)[C@H](CO)NC(=O)[C@H](CCCNC(=N)N)NC(=O)[C@H](CO)NC1=O
human MASP1 IC50 [1]: 5.1 nM | human MASP2 IC50 [2]: 17 nM

AICSRS[tBuAla]PP[(2S)‑2‑(Amino)‑2‑((1S,3S)-3-hydroxycyclohexyl)acetic acid][NMeC]IPD-NH2 (disulfide 3-11) [AIC+SRS-((tBu)A)-PP-((2S)-2-(Amino)-2-[(1S,3S)-3-hydroxycyclohexyl]acetic acid)-((N-Me)C)+IPD-NH2]
human MASP1 IC50 [1]: 4.7 nM | human MASP2 IC50 [2]: 1100 nM

B11: aIC+SRSLP-(Oic)-I-(Pen)+IPE-NH2 (peptide)
peptide: [dA]ICSRSLP[Oic]I[Pen]IPE-NH2
modifications: disulfide 3-11; N-terminus assumed
SMILES: CC[C@H](C)[C@H](NC(=O)[C@@H](C)N)C(=O)N[C@H]1CSSC(C)(C)[C@@H](C(=O)N[C@H](C(=O)N2CCC[C@H]2C(=O)N[C@@H](CCC(=O)O)C(N)=O)[C@@H](C)CC)NC(=O)[C@H]([C@@H](C)CC)NC(=O)[C@@H]2C[C@@H]3CCCC[C@@H]3N2C(=O)[C@@H]2CCCN2C(=O)[C@H](CC(C)C)NC(=O)[C@H](CO)NC(=O)[C@H](CCCNC(=N)N)NC(=O)[C@H](CO)NC1=O
human MASP1 IC50 [1]: 5 nM | human MASP2 IC50 [2]: 150 nM

[Sar]ICSRSLP[Oic]I[Pen]I[5‑Azaspiro(2.4)heptane‑1‑carboxylic acid]-OH (disulfide 3-11) [((N-Me)G)-IC+SRSLP-(Oic)-I-(Pen)+I-((5-Azaspiro[2.4]heptane-1-carboxylic acid)-OH]
human MASP1 IC50 [1]: 5.1 nM | human MASP2 IC50 [2]: 100 nM

B12: AIC+SRSLP-(Oic)-I-((N-Me)C)+IPD-NH2 (peptide)
peptide: AICSRSLP[Oic]I[NMeC]IPD-NH2
modifications: disulfide 3-11; N-terminus assumed
SMILES: CC[C@H](C)[C@H](NC(=O)[C@H](C)N)C(=O)N[C@H]1CSSC[C@@H](C(=O)N[C@H](C(=O)N2CCC[C@H]2C(=O)N[C@@H](CC(=O)O)C(N)=O)[C@@H](C)CC)N(C)C(=O)[C@H]([C@@H](C)CC)NC(=O)[C@@H]2C[C@@H]3CCCC[C@@H]3N2C(=O)[C@@H]2CCCN2C(=O)[C@H](CC(C)C)NC(=O)[C@H](CO)NC(=O)[C@H](CCCNC(=N)N)NC(=O)[C@H](CO)NC1=O
human MASP1 IC50 [1]: 4.8 nM | human MASP2 IC50 [2]: 245 nM
